Measurements taken from patent US20160159906A1 (Genentech, published 2016).

T1: human CD79b (human, UniProt P40259 29-229)
T1 construct: Endogenous CD79b on BJAB / BJAB-luciferase cells (FACS) and on human B cells (killing assays); also called huCD79b; Igβ
T1 sequence: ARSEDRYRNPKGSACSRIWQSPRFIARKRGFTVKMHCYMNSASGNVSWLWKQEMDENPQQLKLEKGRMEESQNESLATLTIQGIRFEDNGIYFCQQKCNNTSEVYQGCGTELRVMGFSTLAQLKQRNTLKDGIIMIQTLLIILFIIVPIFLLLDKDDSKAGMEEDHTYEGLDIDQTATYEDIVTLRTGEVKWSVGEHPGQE

B1: CD79b.A7, dual arm, bivalent anti-CD79b antibody (antibody, V domains shown)
VH: QVQLQQPGVELVRPGASVKLSCKASGYTFTTYWMNWVRQRPGQGLDWIGMIDPSDSETHYNQMFKDKATLTVDKSSSTAYIQLNSLTSEDSAVYYCSRSLAFWGQGTLVTVSA
VL: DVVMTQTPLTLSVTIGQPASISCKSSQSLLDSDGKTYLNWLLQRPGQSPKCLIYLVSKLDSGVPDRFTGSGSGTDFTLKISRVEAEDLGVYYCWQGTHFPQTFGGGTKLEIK
notes: Mouse hybridoma clone; also called CD79.A7; muCD79b.A7

Tests used:
human CD79b = biological target: T1, human CD79b; assay: FACS on BJAB cells (FIG. 3B); dual arm, bivalent antibody
Experimental: BJAB cells were incubated with anti-CD79b antibody (bivalent, dual arm antibody) or anti-CD79b/CD3 TDB antibody as indicated for 30 minutes on ice. At the end of the incubation, cells were washed with ice cold FACS buffer (lx PBS, 2% BSA, 2mM EDTA), followed by incubation with PE-labeled mouse anti-human IgG antibody (BD bioscience #555787). Flow cytometry analysis was done on a BD LSR analyzer. Antibody binding was expressed as Mean Fluorescence Intensity (MFI) of PE fluorophore. A: The bivalent binding affinity of anti-CD79b clone 2F2 comparing to monovalent binding affinity of anti-CD79b clones 2F2, SN8v28, and SN8new (as K&H TDBs); B: bivalent binding affinity of anti-CD79b clones CD79b.F6 and CD79b.A7 comparing to monovalent binding of anti-CD79b clones CD79b.F6, CD79b.A7, and SN8v28 (as bisfab or K&H TDBs); C: bivalent binding affinity of anti-CD79b clone CD79b.A7.v14 comparing to monovalent binding of anti-CD79b clone CD79b.A7.v14 (as K&H TDBs).
The monovalent and bivalent anti-CD79b antibody binding affinity was also evaluated in order to better understand the contribution, if any, to B cell killing activity. Binding affinity of dual arm, bivalent anti-CD79b antibodies and bispecific anti-CD79b/ CD3 antibodies using BJAB cells were also analyzed. […]

[1] = biological target: B1; assay: FACS on BJAB cells, peptide competition of CD79b.A7 binding (data not shown)

B1
EC50 (human CD79b): 0.31 µg/mL

AKSEDLYPNPKGSACSRIWQS
binding result [1]: no binding
